Measured values published in patent US20070259417A1 (published 2007).
Ends that are not written are not given here.

How the values were obtained:
[1] = biological target: agarose-immobilized anhydro-trypsin (UniProt P00760); test: pfu acid eluted from anhydrotrypsin beads, experiment 1
[2] = biological target: agarose-immobilized anhydro-trypsin (UniProt P00760); test: pfu acid eluted from anhydrotrypsin beads, experiment 2
[3] = biological target: agarose-immobilized anhydro-trypsin (UniProt P00760); test: pfu eluted from anhydrotrypsin beads
trypsin [4] = biological target: trypsin (UniProt P00760); test: pfu eluted from trypsin beads
[5] = biological target: agarose-immobilized anhydro-trypsin (UniProt P00760); test: phage titer after incubation with anhydrotrypsin beads
trypsin [6] = biological target: trypsin (UniProt P00760); test: pfu acid eluted from trypsin beads
[7] = biological target: T1, human neutrophil elastase (human, UniProt P08246 30-247); test: pfu acid eluted from HNE beads
T1 construct: also called HNE; immobilized HNE
T1 sequence (looked up): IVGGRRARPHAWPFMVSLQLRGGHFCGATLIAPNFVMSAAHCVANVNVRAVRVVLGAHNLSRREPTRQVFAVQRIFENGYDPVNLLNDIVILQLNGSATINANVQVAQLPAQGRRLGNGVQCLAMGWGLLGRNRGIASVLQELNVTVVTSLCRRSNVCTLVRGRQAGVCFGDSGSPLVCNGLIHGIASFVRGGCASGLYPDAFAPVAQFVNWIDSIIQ

[8] = biological target: agarose-immobilized streptavidin (UniProt P22629); test: dot blot of phage eluted at pH 2.2 from 5 ul immobilized streptavidin
[9] = biological target: agarose-immobilized anhydro-trypsin (UniProt P00760); test: dot blot of phage eluted at pH 2.2 from 10 ul immobilized anhydro-trypsin
trypsin [10] = biological target: trypsin (UniProt P00760); test: pH 2.2 eluate from immobilized active trypsin, bound in CBS pH 6.5
trypsin [11] = biological target: trypsin (UniProt P00760); test: pH 2.2 eluate from immobilized active trypsin, bound in TBS pH 7.5
[12] = biological target: agarose-immobilized anhydro-trypsin (UniProt P00760); test: titer after 2 h with 2 ul immobilized anhydro-trypsin
[13] = biological target: agarose-immobilized anhydro-trypsin (UniProt P00760); test: titer after 1 h with 2 ul immobilized anhydro-trypsin
[14] = biological target: agarose-immobilized anhydro-trypsin (UniProt P00760); test: dot blot of phage eluted at pH 2.2 from 5 ul immobilized anhydro-trypsin
[15] = biological target: agarose-immobilized streptavidin (UniProt P22629); test: titer after 1 h with 5 ul immobilized streptavidin
[16] = biological target: agarose-immobilized anhydro-trypsin (UniProt P00760); test: titer after 1 h with 10 ul immobilized anhydro-trypsin
[17] = biological target: agarose-immobilized anhydro-trypsin (UniProt P00760); test: titer after 4 h with 5 ul immobilized anhydro-trypsin
[18] = biological target: agarose-immobilized anhydro-trypsin (UniProt P00760); test: titer after 2 h with 5 ul immobilized anhydro-trypsin
[19] = biological target: agarose-immobilized anhydro-trypsin (UniProt P00760); test: titer after 4 h with 10 ul immobilized anhydro-trypsin
[20] = biological target: agarose-immobilized anhydro-trypsin (UniProt P00760); test: titer after 2 h with 10 ul immobilized anhydro-trypsin
[21] = biological target: agarose-immobilized anhydro-trypsin (UniProt P00760); test: titer after 4 h with 2 ul immobilized anhydro-trypsin
[22] = biological target: agarose-immobilized anhydro-trypsin (UniProt P00760); test: titer after 1 h with 5 ul immobilized anhydro-trypsin
[23] = biological target: agarose-immobilized anhydro-trypsin (UniProt P00760); test: dot blot of phage eluted at pH 2.2 from 2 ul immobilized anhydro-trypsin
[24] = biological target: agarose-immobilized streptavidin (UniProt P22629); test: titer after 4 h with 5 ul immobilized streptavidin
[25] = biological target: agarose-immobilized streptavidin (UniProt P22629); test: titer after 2 h with 5 ul immobilized streptavidin
M13mp18 phage [26] = test: titer of M13MP18 after normal rabbit IgG
M13mp18 phage [27] = test: titer of M13MP18 after normal rabbit IgG and protein A beads
[28] = biological target: T1, human neutrophil elastase; test: HNE beads, abbreviated elution, SUM of pH fractions
Procedure: (§1) To test if the changes at positions 15, 16, 18, and 19 of the ITI-DI-III fusion protein influence binding of display phage to HNE beads, abbreviated pH elution profiles were measured. […] The beads were washed and phage were eluted as described (Example III), except that only three pH elutions were performed: pH 7.0, 3.5, and 2.0.

[29] = biological target: human Cathepsin G (human) (UniProt P08311); test: Cat-G beads, pH 6.0 eluate
[30] = biological target: human Cathepsin G (human) (UniProt P08311); test: Cat-G beads, pH 5.5 eluate
[31] = biological target: T1, human neutrophil elastase; test: HNE beads, abbreviated elution, pH 7.0
Procedure: as §1

[32] = biological target: human Cathepsin G (human) (UniProt P08311); test: Cat-G beads, pH 5.0 eluate
[33] = biological target: human Cathepsin G (human) (UniProt P08311); test: Cat-G beads, SUM of all pH elution fractions
[34] = biological target: human Cathepsin G (human) (UniProt P08311); test: Cat-G beads, pH 3.5 eluate
[35] = biological target: human Cathepsin G (human) (UniProt P08311); test: Cat-G beads, pH 4.5 eluate
[36] = biological target: human Cathepsin G (human) (UniProt P08311); test: Cat-G beads, pH 3.0 eluate
[37] = biological target: human Cathepsin G (human) (UniProt P08311); test: Cat-G beads, pH 2.5 eluate
[38] = biological target: human Cathepsin G (human) (UniProt P08311); test: Cat-G beads, pH 7.0 eluate
[39] = biological target: T1, human neutrophil elastase; test: HNE beads, abbreviated elution, pH 2.0
Procedure: as §1

[40] = biological target: human Cathepsin G (human) (UniProt P08311); test: Cat-G beads, pH 4.0 eluate
[41] = biological target: T1, human neutrophil elastase; test: HNE beads, abbreviated elution, pH 3.5
Procedure: as §1

[42] = biological target: human Cathepsin G (human) (UniProt P08311); test: Cat-G beads, pH 2.0 eluate
[43] = biological target: T1, human neutrophil elastase; test: abbreviated pH elution from HNE beads
Procedure: as §1

[44] = biological target: T1, human neutrophil elastase; test: extended pH elution from HNE beads
Procedure: To test if phage displaying the ITI-DI-III fusion protein interact strongly with the proteases human neutrophil elastase (HNE) or cathepsin-G, aliquots of display phage were incubated with agarose-immobilized HNE or cathepsin-G beads (HNE beads or Cat-G beads, respectively). […] The procession in lowering pH during the elution was: pH 7.0, 6.0, 5.5, 5.0, 4.5, 4.0, 3.5, 3.0, 2.5, and 2.0. Following elution and neutralization, the various input, wash, and pH elution fractions were titered.

Chain of agarose-immobilized anhydro-trypsin (P00760 24-246): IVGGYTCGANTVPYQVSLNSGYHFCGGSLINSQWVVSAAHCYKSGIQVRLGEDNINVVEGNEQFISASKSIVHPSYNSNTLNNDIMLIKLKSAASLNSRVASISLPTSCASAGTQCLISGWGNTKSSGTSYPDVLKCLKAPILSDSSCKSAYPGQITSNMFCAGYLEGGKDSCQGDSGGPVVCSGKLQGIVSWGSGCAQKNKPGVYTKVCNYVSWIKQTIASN
Chain of trypsin (P00760 24-246): as above
Chain of human Cathepsin G (human) (P08311 21-244 limits assumed): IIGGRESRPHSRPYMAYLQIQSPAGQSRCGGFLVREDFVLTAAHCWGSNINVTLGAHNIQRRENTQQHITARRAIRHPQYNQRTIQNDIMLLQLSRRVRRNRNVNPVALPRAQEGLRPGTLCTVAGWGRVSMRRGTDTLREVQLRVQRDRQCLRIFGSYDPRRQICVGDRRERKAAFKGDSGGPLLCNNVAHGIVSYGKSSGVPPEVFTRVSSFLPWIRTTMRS
Chain of agarose-immobilized streptavidin (P22629 37-163 limits assumed): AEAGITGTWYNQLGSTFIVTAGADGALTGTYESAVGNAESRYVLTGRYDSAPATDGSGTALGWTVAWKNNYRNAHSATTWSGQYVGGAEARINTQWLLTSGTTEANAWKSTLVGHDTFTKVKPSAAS

What does the source list for M13mp18 phage?
binding relative to M13MP18 [1]: 1 fold; eluted phage, percent of input [1]: 0.2%; binding relative to M13MP18 [2]: 1 fold; eluted phage, percent of input [2]: 0.3%; binding relative to M13MP18 [3]: 1 fold; eluted phage, percent of input [3]: 0.1%; binding relative to M13MP18 (trypsin [4]): 1 fold; eluted phage, percent of input (trypsin [4]): 0.00023%; pfu after incubation as percent of input [5]: 121%; binding relative to M13MP18 (trypsin [6]): 1 fold; eluted phage, percent of input (trypsin [6]): 0.0005%; binding relative to M13MP18 [7]: 1 fold; eluted phage, percent of input [7]: 0.0003%

MK phage was tested. Which percent of total phage recovered in elution buffer [8] did it give?
The percent of total phage recovered in elution buffer was < 1%.

What about the percent of total phage recovered in elution buffer [9] of the same molecule?
The percent of total phage recovered in elution buffer was < 1%.

And the percent of input phage (trypsin [10])?
Its percent of input phage is 0.00028%.

What about the total pfu recovered in elution buffer (trypsin [10]) of the same molecule?
Its total pfu recovered in elution buffer is 1.35e+06 pfu.

And the percent of input phage (trypsin [11])?
Its percent of input phage is 0.00034%.

And the total pfu recovered in elution buffer (trypsin [11])?
The total pfu recovered in elution buffer was 1.48e+06 pfu.

And the percent residual titer [12]?
The percent residual titer was 103%.

And the percent residual titer [13]?
The percent residual titer was 97%.

What about the percent of total phage recovered in elution buffer [14] of the same molecule?
The percent of total phage recovered in elution buffer was < 1%.

What about the percent residual titer [15] of the same molecule?
Its percent residual titer is 106%.

What about the percent residual titer [16] of the same molecule?
Its percent residual titer is 99%.

And the percent residual titer [17]?
The percent residual titer was 96%.

And the percent residual titer [18]?
The percent residual titer was 111%.

What about the percent residual titer [19] of the same molecule?
The percent residual titer was 106%.

What about the percent residual titer [20] of the same molecule?
Its percent residual titer is 93%.

What about the percent residual titer [21] of the same molecule?
The percent residual titer was 95%.

What about the percent residual titer [22] of the same molecule?
Its percent residual titer is 110%.

And the percent of total phage recovered in elution buffer [23]?
The percent of total phage recovered in elution buffer was < 1%.

What about the percent residual titer [24] of the same molecule?
Its percent residual titer is 98%.

And the percent residual titer [25]?
The percent residual titer was 96%.

What does the source list for “normal rabbit IgG / normal rabbit serum (antibody)”?
percent of input phage (pfu) (M13mp18 phage [26]): 104%; percent of input phage (pfu) (M13mp18 phage [27]): 88%

B1: MA-ITI phage (other, human, UniProt P02760 227-281, looked up)
chain: KEDSCQLGYSAGPCMGMTSRYFYNGTSMACETFQYGGCMGNGNNFVTEKECLQTC
notes: residue range counts on the mature ITI light chain (UTI), not on the AMBP precursor entry; also called MA-ITI 2; MA-ITT; not shown: M13 gene III protein, mature
B1 was tested. Which fraction of input [28] did it give?
The fraction of input was 1.4e-05.

What about the fraction of input [29] of the same molecule?
The fraction of input was 5e-06.

What about the total pfu in sample [29] of the same molecule?
The total pfu in sample was 2.3e+06 pfu.

And the fraction of input [30]?
The fraction of input was 2.6e-06.

What about the total pfu in sample [30] of the same molecule?
Its total pfu in sample is 1.2e+06 pfu.

What about the fraction of input [31] of the same molecule?
The fraction of input was 1e-05.

What about the fraction of input [32] of the same molecule?
Its fraction of input is 2.4e-06.

And the total pfu in sample [32]?
The total pfu in sample was 1.1e+06 pfu.

And the fraction of input [33]?
Its fraction of input is 3e-05.

What about the total pfu in sample [33] of the same molecule?
The total pfu in sample was 1.4e+07 pfu.

What about the fraction of input [34] of the same molecule?
Its fraction of input is 9.6e-07.

And the total pfu in sample [34]?
The total pfu in sample was 440000 pfu.

And the fraction of input [35]?
Its fraction of input is 1.5e-06.

What about the total pfu in sample [35] of the same molecule?
The total pfu in sample was 670000 pfu.

What about the fraction of input [36] of the same molecule?
Its fraction of input is 7.8e-07.

And the total pfu in sample [36]?
Its total pfu in sample is 360000 pfu.

What about the fraction of input [37] of the same molecule?
Its fraction of input is 5.9e-07.

And the total pfu in sample [37]?
Its total pfu in sample is 270000 pfu.

What about the fraction of input [38] of the same molecule?
The fraction of input was 1.3e-05.

And the total pfu in sample [38]?
The total pfu in sample was 6.1e+06 pfu.

And the fraction of input [39]?
Its fraction of input is 1e-06.

What about the fraction of input [40] of the same molecule?
The fraction of input was 9.6e-07.

What about the total pfu in sample [40] of the same molecule?
Its total pfu in sample is 440000 pfu.

And the fraction of input [41]?
The fraction of input was 3e-06.

And the fraction of input [42]?
The fraction of input was 7e-07.

What about the total pfu in sample [42] of the same molecule?
The total pfu in sample was 320000 pfu.

B2: MA-ITI-E7 phage (designed binder)
chain: KEDSCQLGYSAGPCVAMFPRYFYNGTSMACETFQYGGCMGNGNNFVTEKECLQTCR
modifications: not fully specified; cysteine pairing not given here
notes: two phage strains (1 and 2) of the same construct were tested; also called MA-ITI-E7 1; MA-ITI-E7 2; not shown: The join to the display carrier
Which “fold greater total fraction of input eluted than MA-ITI phage” value [43] does the source give for B2 here?
The value was 10 fold.

And the “fold lower total fraction of input eluted than EpiNE-7 phage” value [43]?
Its value is 40 fold.

And the fraction of input [41]?
The fraction of input was 8e-05.

What about the “fold lower total fraction of input eluted than EpiNE-7 phage” value [44] of the same molecule?
The value was ~40 fold.
